The source of these data is paper doi:10.1101/2021.02.05.429900.

Holding throughout (experiment): FRET or BRET
For orientation: In BRET a luciferase serves as donor, and the signal depends on an acceptor being close.

For experiment [1], the target named is Gβ3 with cpVenus-Gγ9 (Gβγ of the G13 BRET sensor) (UniProt P16520).
The target of experiment [2] is cpVenus-tagged Gβγ of the G15 BRET sensor (UniProt P62873).
Experiment [3] has as its target cpVenus-tagged Gβγ of the Gs BRET sensor (UniProt P62873).

Sequence of UniProt P16520 (P16520 whole entry, chain 1 of 2): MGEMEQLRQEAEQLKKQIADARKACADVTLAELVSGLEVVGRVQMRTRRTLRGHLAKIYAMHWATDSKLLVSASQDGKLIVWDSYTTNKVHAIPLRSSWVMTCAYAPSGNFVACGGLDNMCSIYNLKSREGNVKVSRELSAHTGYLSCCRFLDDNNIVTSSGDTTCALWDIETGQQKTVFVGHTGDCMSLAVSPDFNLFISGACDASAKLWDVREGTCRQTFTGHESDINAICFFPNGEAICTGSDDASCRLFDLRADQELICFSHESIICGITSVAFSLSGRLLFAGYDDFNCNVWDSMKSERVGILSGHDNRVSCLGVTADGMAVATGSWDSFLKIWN
Sequence of UniProt P16520 (O14610 whole entry, chain 2 of 2, further chain): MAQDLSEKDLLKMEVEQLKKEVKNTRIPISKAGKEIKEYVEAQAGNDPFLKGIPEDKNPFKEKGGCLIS

Take “Gα13-Nluc (G13 BRET sensor) (from UniProt Q14344 1-377) (natural protein)”: the amplitude of the BRET response (ΔBRET) on agonist activation of TBXA2R in experiment [1] was -35%.

For “Nluc-tagged Gα15 (G15 BRET sensor) (from UniProt P30679 1-374) (natural protein)”, the amplitude of the BRET response (ΔBRET) on agonist activation of TBXA2R in experiment [2] was -10%.

Turning to “Nluc-tagged Gαs (Gs BRET sensor) (from UniProt P63092 1-394) (natural protein)”, the amplitude of the BRET response (ΔBRET) on agonist activation of β2AR in experiment [3] was -10%.
